What was measured:
[1] = molecular target: His-tagged FcγRIIIa (R&D Systems, cat no. 4325-FC) (UniProt P08637)
[2] = molecular target: His-tagged FcγRIIIa (R&D Systems, cat no. 4325-FC) (UniProt P08637); remark: listed apart in the source
[3] = molecular target: His-tagged FcγRI (R&D Systems, cat no. 1257-FC) (UniProt P12314); experiment: AlphaScreen or HTRF; competitive: biotinylated human IgG1 (200 ng/mL) on streptavidin donor beads, His-tagged FcγR (200 ng/mL) on nickel chelate acceptor beads, unlabeled competitor antibody in serial dilutions; 1xPBS, 0.05% BSA, 0.01% Tween 20, pH 7.2; RT 1 h; IC50 interpolated at 50% maximal activity
[4] = molecular target: His-tagged FcγRIIIa (R&D Systems, cat no. 4325-FC) (UniProt P08637); experiment: as above
[5] = molecular target: His-tagged FcγRIIa (R&D Systems, cat no. 1330-CD/CF) (UniProt P12318); experiment: as above

Substance | ADCC against HCC-827 cells with donor PBMCs, EC20 (antibody concentration needed to elicit 20% lysis) [1] [nM] | ADCC against HCC-827 cells with donor PBMCs, Emax (% compared to complete lysis) [1] [%] | ADCC against H1975 cells with donor PBMCs, EC20 (antibody concentration needed to elicit 20% lysis) [2] [nM] | ADCC against H1975 cells with donor PBMCs, Emax (% compared to complete lysis) [2] [%] | IC50 [3] [nM] | IC50 [4] [nM] | IC50 [5] [nM]
JNJ-61186372 - NF (EGFR x c-Met bispecific antibody, normal fucose) | 0.645 | 30 | 0.15 | 40 | 11.6 | 38.1 | 1080
IgG1 isotype - NF (antibody) | – | – | – | – | 8.7 | 32.4 | 1270
JNJ-61186372 - LF (EGFR x c-Met bispecific antibody, low fucose) | 0.0376 | 31 | 0.0015 | 59 | 9.2 | 10 | 946

Source: article PMC5240640
